# Bridges are numbered along the chain shown (N, C = ends). Where no end group is shown, it is not given here. [ ]: non-standard residue; d: D form. The star is where a group is joined. Acetyl(2-(4-imidazolyl)) = O=C(Cc1c[nH]cn1)*; Aib = CC(C)(N)C(=O)O
# Tests used:
# Experiment in all cases: cell-based or functional assay
# human GLP-1 receptor = human GLP-1 receptor (human, UniProt P43220 24-463)
# human GCG receptor = human GCG receptor (human, UniProt P47871 26-477)
# human GIP receptor = biological target: T1, human GIP receptor (human, UniProt P48546 22-466)
# T1 sequence (looked up): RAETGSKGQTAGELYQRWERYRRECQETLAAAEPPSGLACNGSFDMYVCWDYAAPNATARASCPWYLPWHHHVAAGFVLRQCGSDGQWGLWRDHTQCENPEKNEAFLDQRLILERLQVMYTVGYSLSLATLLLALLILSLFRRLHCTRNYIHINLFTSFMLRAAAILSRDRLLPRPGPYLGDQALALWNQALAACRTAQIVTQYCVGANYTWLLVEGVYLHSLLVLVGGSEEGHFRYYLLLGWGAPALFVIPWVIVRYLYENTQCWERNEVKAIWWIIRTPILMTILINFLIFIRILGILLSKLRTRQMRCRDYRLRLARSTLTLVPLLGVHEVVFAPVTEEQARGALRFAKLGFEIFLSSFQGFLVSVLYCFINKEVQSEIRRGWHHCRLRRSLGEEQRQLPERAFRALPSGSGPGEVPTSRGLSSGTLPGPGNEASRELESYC
# Sequence of human GCG receptor (P47871 26-477): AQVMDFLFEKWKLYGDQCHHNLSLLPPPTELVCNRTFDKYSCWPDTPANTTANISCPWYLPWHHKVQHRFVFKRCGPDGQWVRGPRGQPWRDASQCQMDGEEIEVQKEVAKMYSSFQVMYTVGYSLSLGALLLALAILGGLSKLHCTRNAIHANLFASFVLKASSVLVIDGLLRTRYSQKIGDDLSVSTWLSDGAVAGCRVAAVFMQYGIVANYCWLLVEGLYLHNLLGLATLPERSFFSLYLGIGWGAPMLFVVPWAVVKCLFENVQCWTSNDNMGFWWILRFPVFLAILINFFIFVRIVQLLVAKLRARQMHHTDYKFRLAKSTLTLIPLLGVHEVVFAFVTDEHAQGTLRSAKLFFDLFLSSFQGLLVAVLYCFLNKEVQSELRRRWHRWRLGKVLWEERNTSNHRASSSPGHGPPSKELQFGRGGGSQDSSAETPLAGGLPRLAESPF
Binder,In vitro activity relative to native peptide (%) vs. GLP-1 (human GLP-1 receptor) [%],In vitro activity relative to native peptide (%) vs. Glucagon (human GCG receptor) [%],In vitro activity relative to native peptide (%) vs. GIP (human GIP receptor) [%]
[Acetyl(2-(4-imidazolyl))]GQGTFTSDLSIQYDSEHQRDFIEWLKDTGPSSGAPPPSHG [triple agonist of SEQ ID NO: 19],< 0.1,< 0.1,< 0.1
[Acetyl(2-(4-imidazolyl))]GQGTFTSDLSIQYEEEAQQDFVEWLKDTGPSSGAPPPSHG [triple agonist of SEQ ID NO: 20],< 0.1,< 0.1,< 0.1
Y[Aib]QGTFTSDYSKYLDECRAKEFVQWLLDHHPSSGQPPPS (bridge 16-20) [triple agonist of SEQ ID NO: 21],17.8,267,22.7
Y[Aib]QGTFTSDYSKCLDEKRAKEFVQWLLDHHPSSGQPPPS (bridge 16-20) [triple agonist of SEQ ID NO: 22],20.1,140,59.7
Y[Aib]QGTFTSDYSKYLDECRAKEFVQWLLAQKGKKNDWKHNIT (bridge 16-20) [triple agonist of SEQ ID NO: 23],4.01,9.3,< 0.1
H[Aib]QGTFTSDVSSYLLGQAAKQFIAWLVKGGGPSSGAPPPSC [triple agonist of SEQ ID NO: 3],1.8,< 0.1,< 0.1
Y[Aib]QGTFTSDYSKYLDECRAKEFVQWLKNGGPSSGAPPPS (bridge 16-20) [triple agonist of SEQ ID NO: 24],41.2,9.3,< 0.1
H[Aib]QGTFTSDCSKYLDERAAQDFVQWLLDGGPSSGAPPPS [triple agonist of SEQ ID NO: 25],82.6,0.1,< 0.1
H[Aib]QGTFTSDCSKYLDSRAAQDFVQWLLDGGPSSGAPPPS [triple agonist of SEQ ID NO: 26],64.5,0.2,< 0.1
H[Aib]QGTFTSDYSKYLDERACQDFVQWLLDQGGPSSGAPPPS [triple agonist of SEQ ID NO: 27],83.1,0.8,0.9
H[Aib]QGTFTSDYSKYLDEKRAQEFVCWLLAQKGKKNDWKHNIT [triple agonist of SEQ ID NO: 28],17.2,1.6,< 0.1
H[Aib]QGTFTSDYSKYLDEKAAKEFVQWLLNTC (bridge 16-20) [triple agonist of SEQ ID NO: 29],38.5,6,< 0.1
H[Aib]QGTFTSDYSKYLDEKAQKEFVQWLLDTC (bridge 16-20) [triple agonist of SEQ ID NO: 30],142,0.7,0.8
